Reference: patent publication US20170158777A1 (ORUM THERAPEUTICS, published 2017)

Target: T1, integrin ανβ3 on K562 integrin ανβ3-overexpressing cells (UniProt P06756 31-1048; P05106 27-788)
T1 construct: whole, on cells; Heterodimer overexpressed on K562 cells; Parental K562 cells served as the comparison; also called K562 integrin ανβ3 cells
Test: FACS on K562 integrin ανβ3-overexpressing cells, 100 nM antibody with 300 IU/ml heparin
Method: Specifically, each of a K562 cell line and a K562 integrin ανβ3-overexpressing cell line was added to 1.5 ml at a density of 2×10⁵ cells, then washed twice with washing buffer (pH 7.4 PBS, 2% FBS). […] The cells were washed twice with washing buffer, and then stained with an Alexa488 (green fluorescence)-labeled antibody (Invitrogen) that specifically recognizes human IgG, at 4° for 1 hour. Next, the cells were washed twice with washing buffer, and analyzed by FACS.

B1: RGD10 peptide-fused anti-Ras•GTP iMab RT11 (antibody, V domains shown)
VH: EVQLVESGGGLVQPGGSLRLSCAASGFTFSSYSMSWVRQAPGKGLEWVSYISRTSHTTYYADSVKGRFTISRDNSKNTLYLQMNSLRAEDTAVYYCARGFFMDYWGQGTLVTVSS
VL: DLVMTQSPSSLSASVGDRVTITCKSSQSLFNSRTRKNYLAWYQQKPGKAPKLLIYWASTRESGVPSRFSGSGSGTDFTLTISSLQPEDFATYYCQQYYYHMYTFGQGTKVEIKR
notes: also called RGD10-RT11; RGD10 peptide-fused RT11
**Q.** Does B1 bind?
**A.** binds
